Results published in article PMC12624148.
Where “and” joins values, the source holds several entries; their conditions need not be identical. Identical values can stand only once.

Experiments:
[1] = biological target: CPC I1-190 SB dloop del110-206;Borealin (UniProt Q9NQS7+O15392+Q53HL2); assay: EMSA; details: histone H3 T3ph (native ligation, H3T32C); EMSA: 20 nM NCP, 10 mM Tris pH 7.5, 250 mM NaCl, 1 mM MgCl2, 1 mM DTT, 1% glycerol, 0.1 mg/ml BSA, 1 h on ice; gel at 4 C. SPR buffer not in the material
[2] = biological target: CPC I1-190 6A SB R65A;R66A;K67A;K68A;R69A;R70A;INCENP (UniProt Q9NQS7+O15392+Q53HL2); assay: EMSA; details: histone H3 T3ph; EMSA: 20 nM NCP, 10 mM Tris pH 7.5, 250 mM NaCl, 1 mM MgCl2, 1 mM DTT, 1% glycerol, 0.1 mg/ml BSA, 1 h on ice; gel at 4 C. SPR buffer not in the material
[3] = biological target: CPC I1-190 6A SB dloop R65A;R66A;K67A;K68A;R69A;R70A;internal_change (UniProt Q9NQS7+O15392+Q53HL2); assay: EMSA; details: histone H3 T3ph; EMSA: 20 nM NCP, 10 mM Tris pH 7.5, 250 mM NaCl, 1 mM MgCl2, 1 mM DTT, 1% glycerol, 0.1 mg/ml BSA, 1 h on ice; gel at 4 C. SPR buffer not in the material
[4] = biological target: H3T3 phosphorylated nucleosome core particle (H3T3ph NCP) (UniProt P62805); assay: native gel or EMSA; 20 nM H3T3ph NCPs wrapped with centromeric α-satellite DNA; CPC 7.8 nM to 2 µM, 1 h on ice; 10 mM Tris pH 7.5, 250 mM NaCl, 1 mM MgCl2, 1 mM DTT, 1% glycerol, 0.1 mg/ml BSA; gel at 4 °C; unbound NCP band quantified, specific binding with Hill slope
[5] = biological target: H3T3 phosphorylated nucleosome core particle (H3T3ph NCP) (UniProt P62805); assay: mass photometry; CPC-NCP complexes diluted to 20 nM (legend of Fig. EV1D: 50 nM) in 20 mM HEPES pH 8.0, 50 mM NaCl, 1 mM EDTA, 1 mM DTT; Refeyn TwoMP; Gaussian fitting of mass populations

ACAGGATGTATATATGTGACACGTGCCTGGAGACTAGGGAGTAATCCCCTTGGCGGTTAAAACGCGGGGGACAGCGCGTACGTGCGTTTAAGCGGTGCTAGAGCTGTCTACGACCAATTGAGCGGCCTCGGCACCGGGATTCTCCAG (double strand) [H3T3ph NCP, Widom 601 147 bp]
fold decrease in binding affinity vs P1 (fold decrease in affinity vs P1) [1]: 12

H3T3ph NCP, alpha-satellite 147 bp
binding signal (fold weaker vs P1) [2]: 1.5 | binding signal [3]: 13 fold

CPC_(I1-190 6ASB) (INCENP with RRKKRR mutated to AAAAAA) (from UniProt Q53HL2 1-280; O15392 1-142; Q9NQS7 1-190) (complex)
times weaker binding against CPC (I1-190SB) [4]: 1.5 times

CPC_(I1-58SB) (containing INCENP 1-58, full-length Survivin and full-length Borealin) (from UniProt Q53HL2 1-280; O15392 1-142; Q9NQS7 1-58) (complex)
stoichiometry N [5]: 2 CPC per NCP and 1 CPC per NCP

CPC_(I1-58SBS266D) (containing INCENP 1-58, full-length Survivin and full-length Borealin dimer breaking mutant, S266D) (from UniProt Q53HL2 1-280; O15392 1-142; Q9NQS7 1-58) (complex)
stoichiometry N [5]: 1 CPC per NCP and 2 CPC per NCP

CPC_(I1-190SB) (CPC containing INCENP 1-190, full-length Survivin and full-length Borealin) (from UniProt Q53HL2 1-280; O15392 1-142; Q9NQS7 1-190) (complex)
stoichiometry N [5]: 2 CPC per NCP
